According to patent US20110045604A1 (UNIVERSITY OF CHICAGO, published 2011):

Biological target: T1, Erbin PDZ (UniProt Q96RT1 1321-1410, limits assumed)
T1 construct: domain: PDZ; Isolated PDZ domain without FN3; Expressed in E. coli from a pHFT2 derivative; also called wild-type PDZ domain; parent PDZ
Experiment: SPR (BIAcore 2000); PDZ immobilised on Ni-NTA chip, SUMO-peptide fusion as analyte
Procedure: Affinity Measurements. SPR measurements were performed in 20 mM HEPES/NaOH buffer (pH 7.4), 150 mM NaCl, and 0.005% Tween 20 at 25° C. on a BIAcore 2000 instrument. The affinity clamp or the linker mutant was immobilized on a Ni-NTA chip to the level of approximate 300 RU, and different concentrations of SUMO-peptide fusion protein were injected. The kinetic data were analyzed using the one-to-one binding model in BIAEvaluation (BIAcore).

T1 sequence (Q96RT1 1321-1410 limits assumed): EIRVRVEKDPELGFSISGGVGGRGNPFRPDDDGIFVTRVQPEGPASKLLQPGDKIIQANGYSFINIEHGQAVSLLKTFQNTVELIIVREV

B1: SUMO-δ-catenin peptide fusion protein (peptide)
peptide: {yeast SUMO}-PASPDSWV-OH
modifications: not fully specified
notes: The methods say that SUMO-peptide fusion proteins were injected in SPR; also called C-terminus of δ-catenin; not shown: The yeast SUMO fusion partner N-terminal to the peptide, and any junction or tag residues
Kd: 6.3 µM

B2: SUMO-ARVCF peptide fusion protein (peptide)
chain: PQPVDSWV
notes: Analyte in SPR; also called wild-type ARVCF peptide; AVFCF peptide; not shown: yeast SUMO, fusion partner N-terminal to the peptide
Kd: 2.2 µM
